The source of these data is PMC8897147.

This experiment deals with SV1, splice variant of GHRHR, -Rluc8. Nature of the experiment: FRET or BRET. (In general: In BRET a luciferase serves as donor, and the signal depends on an acceptor being close.)
Chain of SV1, splice variant of GHRHR, -Rluc8 (Q02643 23-423, change not shown): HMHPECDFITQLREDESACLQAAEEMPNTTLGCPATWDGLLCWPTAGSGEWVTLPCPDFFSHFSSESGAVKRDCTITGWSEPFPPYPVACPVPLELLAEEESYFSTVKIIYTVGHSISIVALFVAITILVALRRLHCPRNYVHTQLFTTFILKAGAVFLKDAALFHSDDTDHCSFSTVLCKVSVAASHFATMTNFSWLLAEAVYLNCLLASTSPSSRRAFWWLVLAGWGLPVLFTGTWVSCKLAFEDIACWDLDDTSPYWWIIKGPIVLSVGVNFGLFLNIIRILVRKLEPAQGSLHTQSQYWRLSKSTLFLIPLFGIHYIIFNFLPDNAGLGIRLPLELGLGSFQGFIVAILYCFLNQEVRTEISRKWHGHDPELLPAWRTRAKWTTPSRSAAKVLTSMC

Chain of RAMP2-Ypet (receptor activity-modulating protein 2) (O60895 43-175): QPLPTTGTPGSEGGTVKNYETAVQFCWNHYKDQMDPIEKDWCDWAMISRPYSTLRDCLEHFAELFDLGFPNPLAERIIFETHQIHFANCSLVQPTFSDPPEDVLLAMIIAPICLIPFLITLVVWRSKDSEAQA

As for “RAMP1-Ypet (receptor activity-modulating protein 1) (from UniProt O60894 27-148) (natural protein)”, the BRET50 (Kd) (intensity ratio of RAMP:receptor) amounted to 4.4.

With “RAMP2-Ypet (receptor activity-modulating protein 2) (from UniProt O60895 43-175) (natural protein)”, the BRET50 (Kd) (intensity ratio of RAMP:receptor) stood at 2.36.
